The values below come from PMC9886975, “Ligand recognition mechanism of the human relaxin family peptide receptor 4 (RXFP4)” (Nature Communications, 2023).

For one experiment, the system named is RXFP4. The following applies: R23^BA ref 34; R23^BE ref 35; cited from earlier work. The source says:
Despite these advances, difficulties in obtaining sufficient quantities of native INSL5 hampered our efforts in further exploring the biology of the peptide and its cognate receptor. […] In addition to peptidic analogs, small molecule modulators have been reported in recent years. […] The N-terminal residues (R5^B to L9^B) adopted a loop that is clasped by a short N-terminal α-helix of the A chain through one disulfide bond (C8^A‒C7^B). W24^B contributed massive polar and nonpolar interactions to stabilize the peptide binding via both side chain indole and the carboxylic acid group. The former made a hydrogen bond with T121^3.32 (superscripts denote Ballesteros–Weinstein numbering[32]), as well as cation- ...

Experiment [1] has as its target T1, human RXFP4 stably expressed on CHO-K1 cells (hRXFP4-CHO) (human, UniProt Q8TDU9 1-374). Description: cell-based or functional assay.
For experiment [2], the target named is human RXFP4 H299A mutant (human) (UniProt Q8TDU9).
For experiment [3], the target named is T1, human RXFP4 stably expressed on CHO-K1 …. Description: competitive binding of a europium-labelled ligand on cells (time-resolved fluorescence); CHO-K1 cells stably transfected with RXFP4 on poly-L-lysine 96-well plates; 5 nM Eu-R3/I5 with increasing amounts of ligand; one-site binding curve. Particulars: one partner purified.

Ends that are not written are not given here.

By pKi is commonly meant the negative decadic logarithm of the Ki, by convention in mol/L. The low end stands for a high Ki, the high end for a low Ki.

T1 sequence (Q8TDU9 whole entry): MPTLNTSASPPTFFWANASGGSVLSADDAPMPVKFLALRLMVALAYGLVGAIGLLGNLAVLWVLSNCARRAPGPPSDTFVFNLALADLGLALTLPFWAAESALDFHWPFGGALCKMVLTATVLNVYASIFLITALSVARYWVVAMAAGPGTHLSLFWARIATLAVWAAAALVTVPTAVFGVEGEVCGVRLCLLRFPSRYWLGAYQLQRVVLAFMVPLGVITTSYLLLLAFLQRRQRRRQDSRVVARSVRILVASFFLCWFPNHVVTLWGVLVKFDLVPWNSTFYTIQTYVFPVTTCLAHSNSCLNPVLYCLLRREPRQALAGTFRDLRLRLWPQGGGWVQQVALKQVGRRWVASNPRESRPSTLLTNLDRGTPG
Chain of human RXFP4 H299A mutant (human) (Q8TDU9 whole entry H299A): as the sequence (Q8TDU9 whole entry) above, with H299A counted along it

Consider “R23^BA: INSL5 with R23^B replaced by alanine (Insulin-like peptide INSL5 B … KESVRLCGLEYIRTVIYICASSAW; Insulin-like peptide INSL5 A … QDLQTLCCTDGCSMTDLSALC; disulfide (positions not given here); ends not checked; also: three disulfide bonds, places not given here; UniProt Q9Y5Q6 23-46; Q9Y5Q6 115-135, looked up, variant R23A)”, for which the “potency of R23^B mutant vs INSL5” value in the experiment on RXFP4 is listed as “reduced potencies”.

B1: recombinant two-chain human insulin-like peptide 5 (INSL5) (ligand)
chain 1: QDLQTLCCTDGCSMTDLSALC
chain 2: KESVRLCGLEYIRTVIYICASSRW
As to B1, the “inhibition of forskolin-induced cAMP responses in CHO-K1 cells stably transfected with RXFP4 (pEC50)” value in experiment [1] was 8.8. In addition, the INSL5-induced cAMP response in HEK293T cells transfected with the mutant receptor: reduction of Emax against wild type in experiment [2] is 70%. Besides, the pKi in experiment [3] came out at 8.19.
